From patent publication US10940198B2, “Herpes zoster vaccine composition” (MOGAM INSTITUTE FOR BIOMEDICAL RESEARCH, priority 2016, dated 2021)

Assays:
entire VZV (VZV lysate) = experiment: IFN-γ ELISPOT assay, leukocyte stimulation with VZV lysate; assay type: in vivo, C57BL/6 mice; conditions: Experimental Example 10, FIG. 12; gE alone versus gE together with gI or IE63 antigen
Experimental: (§1) Since humans have a history of chickenpox infection, in order to mimic chickenpox infection in mice, live attenuated vaccine (LAV, 3000 pfu) was subcutaneously injected once to female C57BL/6 mice to perform primary immunization (LAV priming). After 28 days from the LAV priming (Day 0), various VZV vaccine compositions with or without VZV protein immunogen or adjuvant were administered by intramuscular injection to perform secondary immunization. […]
After performing the primary immunization and the secondary immunization, mouse IFN-γ ELISPOT (enzyme-linked immunospot) assay was carried out to confirm VZV antigen-specific cell-mediated immune response (CMI). […] The number of the resulting spots were counted with a device.
The gE protein, gE OLP, or VZV lysate-specific cell-mediated immune responses were measured according to the method of Experimental Example 2-2 (IFN-γ ELISPOT assay), and the experimental results are summarized in FIGS. 3, 4, and 5. […]
The gE protein, gE OLP, or VZV lysate-specific cell-mediated immune responses were measured according to the method of Experimental Example 2-2 (IFN-γ ELISPOT assay), and the experimental results are summarized in FIGS. 15, 16, and 17.

VZV antigen = experiment: VZV antigen-specific IgG titer (ELISA) after immunization; assay type: in vivo, C57BL/6 mice; conditions: Experimental Example 10, FIG. 12; gE alone versus gE together with gI or IE63 antigen
Experimental: as §1
After performing the primary immunization and the secondary immunization, ELISA (enzyme-linked immunosorbant assay) was carried out for measuring VZV antigen-specific IgG titer. […] The HRP reaction was stopped by adding ELISA stop solution and optical density (OD) was measured using a spectrometer at a wavelength of 450 nm.
Various VZV antigen-specific IgG titers depending on the use of SLA-SE were determined in the same manner as in Experimental Example 2-1 except that any one of gE, gI, IE63, gB, gC, and gL was used as an antigen in the secondary immunization and SLA-SE was used as an adjuvant, and the results are summarized in FIGS. 8 and 9. […]

B1: gE antigen: VZV glycoprotein E of SEQ ID NO: 1 (protein)
chain: MGTVNKPVVGVLMGFGIITGTLRITNPVRASVLRYDDFHTDEDKLDTNSVYEPYYHSDHAESSWVNRGESSRKAYDHNSPYIWPRNDYDGFLENAHEHHGVYNQGRGIDSGERLMQPTQMSAQEDLGDDTGIHVIPTLNGDDRHKIVNVDQRQYGDVFKGDLNPKPQGQRLIEVSVEENHPFTLRAPIQRIYGVRYTETWSFLPSLTCTGDAAPAIQHICLKHTTCFQDVVVDVDCAENTKEDQLAEISYRFQGKKEADQPWIVVNTSTLFDELELDPPEIEPGVLKVLRTEKQYLGVYIWNMRGSDGTSTYATFLVTWKGDEKTRNPTPAVTPQPRGAEFHMWNYHSHVFSVGDTFSLAMHLQYKIHEAPFDLLLEWLYVPIDPTCQPMRLYSTCLYHPNAPQCLSHMNSGCTFTSPHLAQRVASTVYQNCEHADNYTAYCLGISHMEPSFGLILHDGGTTLKFVDTPESLSGLYVFVVYFNGHVEAVAYTVVSTVDHFVNAIEERGFPPTAGQPPATTKPKEITPVNPGTSPLLR
modifications: Human herpesvirus 3
Entire VZV (VZV lysate)
  VZV-specific T cell response: not significantly different
VZV antigen
  VZV-specific antibody response: not significantly different
